Measurements as given in patent publication US20260167699A1 (Chugai, published 2026).
Substitutions are numbered along the chain they refer to.

T1: FcγRIIa(H) extracellular domain, His-tagged (human, UniProt P12318 34-217)
T1 construct: extracellular domain; also called 2aH
T1 sequence: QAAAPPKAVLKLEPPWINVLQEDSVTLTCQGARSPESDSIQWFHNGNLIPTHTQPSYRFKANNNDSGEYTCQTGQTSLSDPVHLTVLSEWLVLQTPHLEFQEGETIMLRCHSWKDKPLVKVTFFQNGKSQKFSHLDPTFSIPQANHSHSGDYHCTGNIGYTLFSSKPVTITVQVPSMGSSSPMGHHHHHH

T2: FcγRIIb extracellular domain, His-tagged (human, UniProt P31994 43-217)
T2 construct: extracellular domain; also called 2b
T2 sequence: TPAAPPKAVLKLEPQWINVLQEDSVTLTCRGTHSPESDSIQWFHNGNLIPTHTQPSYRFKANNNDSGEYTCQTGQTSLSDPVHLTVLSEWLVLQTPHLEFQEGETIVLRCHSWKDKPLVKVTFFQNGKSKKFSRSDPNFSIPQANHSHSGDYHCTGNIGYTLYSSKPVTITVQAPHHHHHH

T3: FcγRIIa(R) extracellular domain, His-tagged (human, UniProt P12318 34-217)
T3 construct: extracellular domain; also called 2aR
T3 sequence: T1 sequence with H134R

B1: GpH7-A5/GpH7-B3 variant H268_12R/GpL16-k0 (antibody, human IgG1, kappa)
heavy 1: not shown
heavy 2: not shown
light: DIVMTQSPLSLPVTPGEPASISCQASESLVHSNRNTYLHWYLQKPGQSPQLLIYKVSNRFSGVPDRFSGSGSGTDFTLKISRVEAEDVGVYYCSQNTHVPPTFGQGTKVEIERTVAAPSVFIFPPSDEQLKSGTASVVCLLNNFYPREAKVQWKVDNALQSGNSQESVTEQDSKDSTYSLSSTLTLSKADYEKHKVYACEVTHQGLSSPVTKSFNRGEC
B2: GpH7-A5/GpH7-B3 variant H268_13S/GpL16-k0 (antibody, human IgG1, kappa)
heavy 1: not shown
heavy 2: not shown
light: B1 light
B3: GpH7-A5/GpH7-B3 variant H268_15Y/GpL16-k0 (antibody, human IgG1, kappa)
heavy 1: not shown
heavy 2: not shown
light: B1 light
B4: GpH7-A5/GpH7-B3 variant H268_18N/GpL16-k0 (antibody, human IgG1, kappa)
heavy 1: not shown
heavy 2: not shown
light: B1 light
B5: GpH7-A5/GpH7-B3 variant H268_19Q/GpL16-k0 (antibody, human IgG1, kappa)
heavy 1: not shown
heavy 2: not shown
light: B1 light
B6: GpH7-A5/GpH7-B3 variant H268_20W/GpL16-k0 (antibody, human IgG1, kappa)
heavy 1: not shown
heavy 2: not shown
light: B1 light
B7: GpH7-A5/GpH7-B3 variant L234_01G/GpL16-k0 (antibody, human IgG1, kappa)
heavy 1: not shown
heavy 2: not shown
light: B1 light
B8: GpH7-A5/GpH7-B3 variant L234_02A/GpL16-k0 (antibody, human IgG1, kappa)
heavy 1: not shown
heavy 2: not shown
light: B1 light
B9: GpH7-A5/GpH7-B3 variant L234_03V/GpL16-k0 (antibody, human IgG1, kappa)
heavy 1: not shown
heavy 2: not shown
light: B1 light
B10: GpH7-A5/GpH7-B3 variant L234_04F/GpL16-k0 (antibody, human IgG1, kappa)
heavy 1: not shown
heavy 2: not shown
light: B1 light
B11: GpH7-A5/GpH7-B3 variant L234_05P/GpL16-k0 (antibody, human IgG1, kappa)
heavy 1: not shown
heavy 2: not shown
light: B1 light
B12: GpH7-A5/GpH7-B3 variant L234_06M/GpL16-k0 (antibody, human IgG1, kappa)
heavy 1: not shown
heavy 2: not shown
light: B1 light
B13: GpH7-A5/GpH7-B3 variant L234_07I/GpL16-k0 (antibody, human IgG1, kappa)
heavy 1: not shown
heavy 2: not shown
light: B1 light
B14: GpH7-A5/GpH7-B3 variant L234_09D/GpL16-k0 (antibody, human IgG1, kappa)
heavy 1: not shown
heavy 2: not shown
light: B1 light
B15: GpH7-A5/GpH7-B3 variant L234_10E/GpL16-k0 (antibody, human IgG1, kappa)
heavy 1: not shown
heavy 2: not shown
light: B1 light
B16: GpH7-A5/GpH7-B3 variant L234_13S/GpL16-k0 (antibody, human IgG1, kappa)
heavy 1: not shown
heavy 2: not shown
light: B1 light
B17: GpH7-A5/GpH7-B3 variant L234_14T/GpL16-k0 (antibody, human IgG1, kappa)
heavy 1: not shown
heavy 2: not shown
light: B1 light
B18: GpH7-A5/GpH7-B3 variant L234_15Y/GpL16-k0 (antibody, human IgG1, kappa)
heavy 1: not shown
heavy 2: not shown
light: B1 light
B19: GpH7-A5/GpH7-B3 variant L234_16H/GpL16-k0 (antibody, human IgG1, kappa)
heavy 1: not shown
heavy 2: not shown
light: B1 light
B20: GpH7-A5/GpH7-B3 variant L234_18N/GpL16-k0 (antibody, human IgG1, kappa)
heavy 1: not shown
heavy 2: not shown
light: B1 light
B21: GpH7-A5/GpH7-B3 variant L234_19Q/GpL16-k0 (antibody, human IgG1, kappa)
heavy 1: not shown
heavy 2: not shown
light: B1 light
B22: GpH7-A5/GpH7-B3 variant L234_20W/GpL16-k0 (antibody, human IgG1, kappa)
heavy 1: not shown
heavy 2: not shown
light: B1 light
B23: GpH7-A5/GpH7-B3 variant L235_02A/GpL16-k0 (antibody, human IgG1, kappa)
heavy 1: not shown
heavy 2: not shown
light: B1 light
B24: GpH7-A5/GpH7-B3 variant L235_03V/GpL16-k0 (antibody, human IgG1, kappa)
heavy 1: not shown
heavy 2: not shown
light: B1 light
B25: GpH7-A5/GpH7-B3 variant L235_04F/GpL16-k0 (antibody, human IgG1, kappa)
heavy 1: not shown
heavy 2: not shown
light: B1 light
B26: GpH7-A5/GpH7-B3 variant L235_05P/GpL16-k0 (antibody, human IgG1, kappa)
heavy 1: not shown
heavy 2: not shown
light: B1 light
B27: GpH7-A5/GpH7-B3 variant L235_06M/GpL16-k0 (antibody, human IgG1, kappa)
heavy 1: not shown
heavy 2: not shown
light: B1 light
B28: GpH7-A5/GpH7-B3 variant L235_07I/GpL16-k0 (antibody, human IgG1, kappa)
heavy 1: not shown
heavy 2: not shown
light: B1 light
B29: GpH7-A5/GpH7-B3 variant L235_09D/GpL16-k0 (antibody, human IgG1, kappa)
heavy 1: not shown
heavy 2: not shown
light: B1 light
B30: GpH7-A5/GpH7-B3 variant L235_10E/GpL16-k0 (antibody, human IgG1, kappa)
heavy 1: not shown
heavy 2: not shown
light: B1 light
B31: GpH7-A5/GpH7-B3 variant L235_13S/GpL16-k0 (antibody, human IgG1, kappa)
heavy 1: not shown
heavy 2: not shown
light: B1 light

Each binder was assayed against T1, FcγRIIa(H) extracellular domain, … (assay: SPR, vs GpH7-A5/GpH7-B3/GpL16-k0 =100).

Binder | He/Con 2aH
B1 | 90.9 % of control
B2 | 114 % of control
B3 | 113 % of control
B4 | 113 % of control
B5 | 104 % of control
B6 | 96.9 % of control
B7 | 84.1 % of control
B8 | 90.1 % of control
B9 | 94.4 % of control
B10 | 133 % of control
B11 | 104 % of control
B12 | 96.4 % of control
B13 | 101 % of control
B14 | 100 % of control
B15 | 98.2 % of control
B16 | 89.4 % of control

Binder | He/Con 2aH
B17 | 86.8 % of control
B18 | 134 % of control
B19 | 97.1 % of control
B20 | 100 % of control
B21 | 88.1 % of control
B22 | 126 % of control
B23 | 77.6 % of control
B24 | 94.9 % of control
B25 | 123 % of control
B26 | 64.2 % of control
B27 | 96.3 % of control
B28 | 99.5 % of control
B29 | 84.3 % of control
B30 | 80 % of control
B31 | 73.5 % of control

What follows are binders tested against T2, FcγRIIb extracellular domain, His-tagged (assay: SPR, vs GpH7-A5/GpH7-B3/GpL16-k0 =100).

Binder | He/Con 2b
B1 | 94.3 % of control
B2 | 168 % of control
B3 | 112 % of control
B4 | 164 % of control
B5 | 140 % of control
B6 | 117 % of control
B7 | 57.8 % of control
B8 | 74.1 % of control
B9 | 83.4 % of control
B10 | 114 % of control
B11 | 83.2 % of control
B12 | 89.6 % of control
B13 | 92.3 % of control
B14 | 172 % of control
B15 | 134 % of control
B16 | 67.7 % of control

Binder | He/Con 2b
B17 | 71.4 % of control
B18 | 110 % of control
B19 | 67.8 % of control
B20 | 92 % of control
B21 | 68.9 % of control
B22 | 131 % of control
B23 | 72 % of control
B24 | 75.8 % of control
B25 | 135 % of control
B26 | 62.4 % of control
B27 | 92.4 % of control
B28 | 100 % of control
B29 | 121 % of control
B30 | 90.8 % of control
B31 | 55 % of control

Each binder was assayed against T4, FcγRIIIa extracellular domain, His-tagged (human, UniProt P08637 17-208) (assay: SPR, vs GpH7-A5/GpH7-B3/GpL16-k0 =100).
T4 construct: extracellular domain; also called 3a
T4 sequence (P08637 other isoform, or with tags, fused parts or gaps): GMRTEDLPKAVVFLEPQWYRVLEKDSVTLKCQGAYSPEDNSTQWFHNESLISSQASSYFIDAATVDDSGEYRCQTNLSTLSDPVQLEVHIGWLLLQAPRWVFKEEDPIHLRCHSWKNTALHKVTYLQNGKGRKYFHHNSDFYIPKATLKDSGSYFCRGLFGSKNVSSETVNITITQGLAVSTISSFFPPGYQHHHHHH

Binder | He/Con 3a
B1 | 76 % of control
B2 | 121 % of control
B3 | 96.5 % of control
B4 | 103 % of control
B5 | 113 % of control
B6 | 82 % of control
B7 | 55.8 % of control
B8 | 69.7 % of control
B9 | 88.3 % of control
B10 | 114 % of control
B11 | 85.1 % of control
B12 | 82.9 % of control
B13 | 99.5 % of control
B14 | 113 % of control
B15 | 111 % of control
B16 | 68.1 % of control

Binder | He/Con 3a
B17 | 69.8 % of control
B18 | 126 % of control
B19 | 76.8 % of control
B20 | 88.2 % of control
B21 | 77.1 % of control
B22 | 103 % of control
B23 | 72 % of control
B24 | 94.6 % of control
B25 | 76.4 % of control
B26 | 68.6 % of control
B27 | 75.6 % of control
B28 | 92.8 % of control
B29 | 88.5 % of control
B30 | 85.6 % of control
B31 | 67.2 % of control

These binders were tested against T3, FcγRIIa(R) extracellular domain, … (assay: SPR, vs GpH7-A5/GpH7-B3/GpL16-k0 =100).

Binder | He/Con 2aR
B1 | 113 % of control
B2 | 137 % of control
B3 | 118 % of control
B4 | 138 % of control
B5 | 128 % of control
B6 | 122 % of control
B7 | 72.4 % of control
B8 | 92.5 % of control
B9 | 99 % of control
B10 | 121 % of control
B11 | 104 % of control
B12 | 109 % of control
B13 | 110 % of control
B14 | 142 % of control
B15 | 130 % of control
B16 | 82.6 % of control

Binder | He/Con 2aR
B17 | 90 % of control
B18 | 113 % of control
B19 | 83.5 % of control
B20 | 98 % of control
B21 | 87.2 % of control
B22 | 125 % of control
B23 | 86.6 % of control
B24 | 83.4 % of control
B25 | 132 % of control
B26 | 74.6 % of control
B27 | 106 % of control
B28 | 102 % of control
B29 | 117 % of control
B30 | 98.7 % of control
B31 | 75.9 % of control

Each binder was assayed against T5, FcγRIa extracellular domain, His-tagged (human, UniProt P12314 16-292) (assay: SPR, vs GpH7-A5/GpH7-B3/GpL16-k0 =100).
T5 construct: extracellular domain; also called 1a
T5 sequence (P12314 other isoform, or with tags, fused parts or gaps): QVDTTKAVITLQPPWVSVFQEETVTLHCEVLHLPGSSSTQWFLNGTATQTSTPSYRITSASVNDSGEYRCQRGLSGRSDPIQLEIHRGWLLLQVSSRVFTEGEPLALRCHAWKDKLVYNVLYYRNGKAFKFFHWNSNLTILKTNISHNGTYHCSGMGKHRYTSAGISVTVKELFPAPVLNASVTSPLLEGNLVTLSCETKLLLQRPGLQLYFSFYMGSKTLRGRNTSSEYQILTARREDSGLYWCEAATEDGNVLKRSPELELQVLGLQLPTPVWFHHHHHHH

Binder | He/Con 1a
B1 | 103 % of control
B2 | 106 % of control
B3 | 104 % of control
B4 | 104 % of control
B5 | 104 % of control
B6 | 103 % of control
B7 | 99.2 % of control
B8 | 101 % of control
B9 | 108 % of control
B10 | 104 % of control
B11 | 103 % of control
B12 | 107 % of control
B13 | 106 % of control
B14 | 101 % of control
B15 | 104 % of control
B16 | 100 % of control

Binder | He/Con 1a
B17 | 102 % of control
B18 | 103 % of control
B19 | 97 % of control
B20 | 97.3 % of control
B21 | 98.8 % of control
B22 | 102 % of control
B23 | 95.2 % of control
B24 | 97.8 % of control
B25 | 100 % of control
B26 | 97.8 % of control
B27 | 101 % of control
B28 | 103 % of control
B29 | 87.6 % of control
B30 | 96.9 % of control
B31 | 93.5 % of control
